Measurements: US20250122306A1 (SUTRO BIOPHARMA, published 2025)

Tests used:
[1] = target: tissue factor reagent of the Tissue Factor Activity Assay Kit (Abcam #ab108906) (UniProt P13726 33-295, limits assumed); test: cell-based or functional assay
[2] = target: human tissue factor on cells (human, UniProt P13726 33-295); test: cell-based or functional assay

Sequence of tissue factor reagent of the Tissue Factor Activity Assay Kit (Abcam #ab108906) (P13726 33-295 limits assumed): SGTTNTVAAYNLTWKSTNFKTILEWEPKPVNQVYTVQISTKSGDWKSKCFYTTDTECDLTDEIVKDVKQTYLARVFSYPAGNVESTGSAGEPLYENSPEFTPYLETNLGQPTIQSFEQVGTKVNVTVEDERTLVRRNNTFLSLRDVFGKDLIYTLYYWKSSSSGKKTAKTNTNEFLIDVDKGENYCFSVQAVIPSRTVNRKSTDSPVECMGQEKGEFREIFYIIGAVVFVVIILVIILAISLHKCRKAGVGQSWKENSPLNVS

B1: SRP2900-G11 (antibody, IgG1, V domains shown)
VH: EVQLVESGGGLVQPGGSSRLSCAASGFTIYDYIIHWVRQAPGKGLEWVGYIDPSNGYTDYADSVKGRFTISADTSKNTAYLQMNSLRAEDTAVYYCARDIQSVSGEFDYWGQGTLVTVSS
VL: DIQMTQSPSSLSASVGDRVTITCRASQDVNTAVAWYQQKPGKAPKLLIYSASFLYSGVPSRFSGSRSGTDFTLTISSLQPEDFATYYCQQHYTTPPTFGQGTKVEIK
[1]
  FX conversion (% inhibition), 1000 nM antibody: 40.9%

B2: SRP2900-H03 (antibody, IgG1, V domains shown)
VH: EVQLVESGGGLVQPGGSLRLSCAASGFTIYDYIIHWVRQAPGKGLEWVGYIDPSNGYTYHADSVKGRFTISADTSKNTAYLQMNSLRAEDTAVYYCARDPQSLSSPFDYWGQGTLVTVSS
VL: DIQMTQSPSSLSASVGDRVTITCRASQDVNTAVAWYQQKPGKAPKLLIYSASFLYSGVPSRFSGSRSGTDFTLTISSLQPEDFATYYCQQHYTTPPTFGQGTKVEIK
[1]
  FX conversion (% inhibition), 1000 nM antibody: 40.8%

B3: SRP2900-H10 (antibody, IgG1, V domains shown)
VH: EVQLVESGGGLVQPGGSLRLSCAASGFTISDYVIHWVRQAPGKGLEWVGYIDPSNGFTYYADSVKGRFTISADTSKNTAYLQTNSLRAEDTAVYYCARDIQSVSGEFDYWGQGTLVTVSS
VL: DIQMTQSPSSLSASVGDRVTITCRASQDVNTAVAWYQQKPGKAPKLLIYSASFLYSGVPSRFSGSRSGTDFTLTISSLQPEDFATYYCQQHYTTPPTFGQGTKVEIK
[1]
  FX conversion (% inhibition), 1000 nM antibody: 45.4%

B4: SRP2900-H04 (antibody, IgG1, V domains shown)
VH: EVQLVESGGGLVQPGGSLRLSCAASGFTISHYIIHWVRQAPGKGLEWVGYIDPSNGYTYYADSVKGRFTISADTSKNTAYLQMNSLRAEDTAVYYCARDIQSVSGEFDYWGQGTLVTVSS
VL: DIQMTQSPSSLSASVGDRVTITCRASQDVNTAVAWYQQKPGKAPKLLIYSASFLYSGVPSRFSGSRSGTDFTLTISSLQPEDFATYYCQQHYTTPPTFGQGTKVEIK
[1]
  FX conversion (% inhibition), 1000 nM antibody: 36.3%

B5: SRP2900-H08 (antibody, IgG1, V domains shown)
VH: EVQLVESGGGLVQPGGSLRLSCAASGFTISDYVIHWVRQAPGKGLEWVGYIDPSNGYTFYADSVKGRFTISADTPKNTAYLQMNSLRAKDTAVYYCARDPQSLSSPFDYWGQGTLVTVSS
VL: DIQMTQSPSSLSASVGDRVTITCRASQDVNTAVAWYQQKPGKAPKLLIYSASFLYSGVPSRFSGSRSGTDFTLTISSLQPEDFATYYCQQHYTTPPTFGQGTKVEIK
[1]
  FX conversion (% inhibition), 1000 nM antibody: 32.2%

B6: SRP2900-H02 (antibody, IgG1, V domains shown)
VH: EVQLVESGGGLVQPGGSLRLSCAASGFTIFDYIIHWVRQAPGKGLEWVGYIDPSNGYTYYADSVKGRFTISADTSKNTAYLQMNSLRAEDTAVYYCARDIQSVSGEFDYWGQGTLVTVSS
VL: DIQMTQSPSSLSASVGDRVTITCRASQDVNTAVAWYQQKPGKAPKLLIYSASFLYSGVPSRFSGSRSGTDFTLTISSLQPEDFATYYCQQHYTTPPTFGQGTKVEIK
[1]
  FX conversion (% inhibition), 1000 nM antibody: 40.4%

B7: SRP2900-H01 (antibody, IgG1, V domains shown)
VH: EVQLVESGGGLVQPGGSLRLSCAASGFTIFDYIIHWVRQAPGKGLEWVGYIDPSNGYTYYADSVKGRFTISADTSKNTAYLQMNSLRAEDTAVYYCARDPQSVGSEFDYWGQGTLVTVSS
VL: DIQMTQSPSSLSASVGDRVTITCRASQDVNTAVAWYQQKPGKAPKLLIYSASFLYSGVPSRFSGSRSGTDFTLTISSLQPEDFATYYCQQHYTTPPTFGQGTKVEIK
[1]
  FX conversion (% inhibition), 1000 nM antibody: 30.5%

B8: SRP2900-H05 (antibody, IgG1, V domains shown)
VH: EVQLVESGGGLVQPGGSLRLSCAASGFTISDYTIHWVRQAPGKGLEWVGYIDPSNGYTYYADSVKGRFTISADTSKNTAYLQMNSLRAEDTAVYYCARDIQSVSGEFDYWGQGTLVTVSS
VL: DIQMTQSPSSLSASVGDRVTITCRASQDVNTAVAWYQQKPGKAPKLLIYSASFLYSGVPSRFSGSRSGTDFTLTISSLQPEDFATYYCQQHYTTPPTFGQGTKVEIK
[1]
  FX conversion (% inhibition), 1000 nM antibody: 36.2%

B9: SRP2900-A06 (antibody, IgG1, V domains shown)
VH: EVQLVESGGGLVQPGGSLRLSCAASGFTISSYWIHWVRQAPGKGLEWVGYIDPFNGATYYADSVKGRFTISADTSKNTAYLQMNSLRAEDTAVYYCARADYYYVDEYWDYWGQGTLVTVSS
VL: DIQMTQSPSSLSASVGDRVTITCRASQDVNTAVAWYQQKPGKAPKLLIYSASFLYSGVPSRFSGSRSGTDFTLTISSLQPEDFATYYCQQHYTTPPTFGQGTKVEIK
[1]
  FX conversion (% inhibition), 1000 nM antibody: 36.8%

B10: SRP2900-A07 (antibody, IgG1, V domains shown)
VH: EVQLVESGGGLVQPGGSLRLSCAASGFTISSYWIHWVRQAPGKGLEWVGYIDPYNGATYYADSVKGRFTISADTSKNTAYLQMNSLRAEDTAVYYCARSDYYYVDEFFDYWGQGTLVTVSS
VL: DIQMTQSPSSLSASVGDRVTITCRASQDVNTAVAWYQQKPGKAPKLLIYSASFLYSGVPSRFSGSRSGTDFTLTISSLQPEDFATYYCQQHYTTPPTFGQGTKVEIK
[1]
  FX conversion (% inhibition), 1000 nM antibody: 28.4%

B11: Conjugate 6: 2900-A02 Y180/F241/F404/k42-LP1 (antibody, human IgG1, kappa)
heavy: MEVQLVESGGGLVQPGGSLRLSCAASGFTISGYIIHWVRQAPGKGLEWVGYIDPSNGYTYYADSVKGRFTISADTSKNTAYLQMNSLRAEDTAVYYCARDDQSLSSPFDYWGQGTLVTVSSASTKGPSVFPLAPSSKSTSGGTAALGCLVKDYFPEPVTVSWNSGALTSGVHTFPAVLQSSGLSLSSVVTVPSSSLGTQTYICNVNHKPSNTKVDKKVEPKSCDKTHTCPPCPAPELLGGPSVLFPPKPKDTLMISRTPEVTCVVVDVSHEDPEVKFNWYVDGVEVHNAKTKPREEQYNSTYRVVSVLTVLHQDWLNGKEYKCKVSNKALPAPIEKTISKAKGQPREPQVYTLPPSREEMTKNQVSLTCLVKGFYPSDIAVEWESNGQPENNYKTTPPVLDSDGSFLYSKLTVDKSRWQQGNVFSCSVMHEALHNHYTQKSLSLSPGK
light: MDIQMTQSPSSLSASVGDRVTITCRASQDVNTAVAWYQQKPGAPKLLIYSASFLYSGVPSRFSGSRSGTDFTLTISSLQPEDFATYYCQQHYTTPPTFGQGTKVEIKRTVAAPSVFIFPPSDEQLKSGTASVVCLLNNFYPREAKVQWKVDNALQSGNSQESVTEQDSKDSTYSLSSTLTLSKADYEKHKVYACEVTHQGLSSPVTKSFNRGEC
modifications: pAMF at K42 linked to LP1; pAMF at Y180, F241 and F404 (EU), each linked to LP1 (DBCO-Valcit-pAB-hemiasterlin)
[2]
  cell killing EC50, HCC1954 (TF+++): 0.085 nM
  cell killing EC50, HCC1954, with 0.5 uM unconjugated mAb 40: > 100 nM
  cell killing EC50, NCI-H292 (TF++++): 0.044 nM
  cell killing EC50, NCI-H292, with 0.5 uM unconjugated mAb 40: > 100 nM
  cell killing EC50, NCI-H1975 (TF++): ~5 nM
  cell killing EC50, NCI-H1975, with 0.5 uM unconjugated mAb 40: > 100 nM
  cell killing Span, HCC1954 (TF+++): 93%
  cell killing Span, NCI-H292 (TF++++): 86%
  cell killing Span, NCI-H1975 (TF++): 71%

B12: Conjugate 1: 2900-A02 Y180/F404-LP1 (antibody, human IgG1, kappa)
heavy: MEVQLVESGGGLVQPGGSLRLSCAASGFTISGYIIHWVRQAPGKGLEWVGYIDPSNGYTYYADSVKGRFTISADTSKNTAYLQMNSLRAEDTAVYYCARDDQSLSSPFDYWGQGTLVTVSSASTKGPSVFPLAPSSKSTSGGTAALGCLVKDYFPEPVTVSWNSGALTSGVHTFPAVLQSSGLSLSSVVTVPSSSLGTQTYICNVNHKPSNTKVDKKVEPKSCDKTHTCPPCPAPELLGGPSVFLFPPKPKDTLMISRTPEVTCVVVDVSHEDPEVKFNWYVDGVEVHNAKTKPREEQYNSTYRVVSVLTVLHQDWLNGKEYKCKVSNKALPAPIEKTISKAKGQPREPQVYTLPPSREEMTKNQVSLTCLVKGFYPSDIAVEWESNGQPENNYKTTPPVLDSDGSFLYSKLTVDKSRWQQGNVFSCSVMHEALHNHYTQKSLSLSPGK
light: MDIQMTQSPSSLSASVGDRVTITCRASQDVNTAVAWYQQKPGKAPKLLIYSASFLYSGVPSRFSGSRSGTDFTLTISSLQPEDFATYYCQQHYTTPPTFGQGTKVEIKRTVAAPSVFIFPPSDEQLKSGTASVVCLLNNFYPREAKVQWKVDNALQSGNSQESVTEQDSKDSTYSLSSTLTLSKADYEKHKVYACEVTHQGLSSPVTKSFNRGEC
modifications: pAMF at Y180 and F404 (EU), each linked to LP1 (DBCO-Valcit-pAB-hemiasterlin)
[2]
  cell killing EC50, HCC1954 (TF+++): 0.064 nM
  cell killing EC50, HCC1954, with 0.5 uM unconjugated mAb 36: > 100 nM
  cell killing EC50, NCI-H292 (TF++++): 0.055 nM
  cell killing EC50, NCI-H1975 (TF++): ~25 nM
  cell killing EC50, NCI-H1975, with 0.5 uM unconjugated mAb 36: > 100 nM
  cell killing Span, HCC1954 (TF+++): 95%
  cell killing Span, NCI-H292 (TF++++): 85%
  cell killing Span, NCI-H1975 (TF++): 62%

B13: Conjugate 3: 2900-A02 Y180/F404/k42-LP1 (antibody, human IgG1, kappa)
heavy: MEVQLVESGGGLVQPGGSLRLSCAASGFTISGYIIHWVRQAPGKGLEWVGYIDPSNGYTYYADSVKGRFTISADTSKNTAYLQMNSLRAEDTAVYYCARDDQSLSSPFDYWGQGTLVTVSSASTKGPSVFPLAPSSKSTSGGTAALGCLVKDYFPEPVTVSWNSGALTSGVHTFPAVLQSSGLSLSSVVTVPSSSLGTQTYICNVNHKPSNTKVDKKVEPKSCDKTHTCPPCPAPELLGGPSVFLFPPKPKDTLMISRTPEVTCVVVDVSHEDPEVKFNWYVDGVEVHNAKTKPREEQYNSTYRVVSVLTVLHQDWLNGKEYKCKVSNKALPAPIEKTISKAKGQPREPQVYTLPPSREEMTKNQVSLTCLVKGFYPSDIAVEWESNGQPENNYKTTPPVLDSDGSFLYSKLTVDKSRWQQGNVFSCSVMHEALHNHYTQKSLSLSPGK
light: MDIQMTQSPSSLSASVGDRVTITCRASQDVNTAVAWYQQKPGAPKLLIYSASFLYSGVPSRFSGSRSGTDFTLTISSLQPEDFATYYCQQHYTTPPTFGQGTKVEIKRTVAAPSVFIFPPSDEQLKSGTASVVCLLNNFYPREAKVQWKVDNALQSGNSQESVTEQDSKDSTYSLSSTLTLSKADYEKHKVYACEVTHQGLSSPVTKSFNRGEC
modifications: pAMF at K42 linked to LP1; pAMF at Y180 and F404 (EU), each linked to LP1 (DBCO-Valcit-pAB-hemiasterlin)
[2]
  cell killing EC50, HCC1954 (TF+++): 0.073 nM
  cell killing EC50, HCC1954, with 0.5 uM unconjugated mAb 39: > 100 nM
  cell killing EC50, NCI-H292 (TF++++): 0.048 nM
  cell killing EC50, NCI-H292, with 0.5 uM unconjugated mAb 39: > 100 nM
  cell killing EC50, NCI-H1975 (TF++): ~7 nM
  cell killing EC50, NCI-H1975, with 0.5 uM unconjugated mAb 39: > 100 nM
  cell killing Span, HCC1954 (TF+++): 93%
  cell killing Span, NCI-H292 (TF++++): 82%
  cell killing Span, NCI-H1975 (TF++): 68%

B14: Conjugate 5: 2900-A02 Y180/F404/k42/E161-LP1 (antibody, human IgG1, kappa)
heavy: MEVQLVESGGGLVQPGGSLRLSCAASGFTISGYIIHWVRQAPGKGLEWVGYIDPSNGYTYYADSVKGRFTISADTSKNTAYLQMNSLRAEDTAVYYCARDDQSLSSPFDYWGQGTLVTVSSASTKGPSVFPLAPSSKSTSGGTAALGCLVKDYFPEPVTVSWNSGALTSGVHTFPAVLQSSGLSLSSVVTVPSSSLGTQTYICNVNHKPSNTKVDKKVEPKSCDKTHTCPPCPAPELLGGPSVFLFPPKPKDTLMISRTPEVTCVVVDVSHEDPEVKFNWYVDGVEVHNAKTKPREEQYNSTYRVVSVLTVLHQDWLNGKEYKCKVSNKALPAPIEKTISKAKGQPREPQVYTLPPSREEMTKNQVSLTCLVKGFYPSDIAVEWESNGQPENNYKTTPPVLDSDGSFLYSKLTVDKSRWQQGNVFSCSVMHEALHNHYTQKSLSLSPGK
light: MDIQMTQSPSSLSASVGDRVTITCRASQDVNTAVAWYQQKPGAPKLLIYSASFLYSGVPSRFSGSRSGTDFTLTISSLQPEDFATYYCQQHYTTPPTFGQGTKVEIKRTVAAPSVFIFPPSDEQLKSGTASVVCLLNNFYPREAKVQWKVDNALQSGNSQSVTEQDSKDSTYSLSSTLTLSKADYEKHKVYACEVTHQGLSSPVTKSFNRGEC
modifications: pAMF at K42 and E161, each linked to LP1; pAMF at Y180 and F404 (EU), each linked to LP1 (DBCO-Valcit-pAB-hemiasterlin)
[2]
  cell killing EC50, HCC1954 (TF+++): 0.08 nM
  cell killing EC50, HCC1954, with 0.5 uM unconjugated mAb 38: > 100 nM
  cell killing EC50, NCI-H292 (TF++++): 0.045 nM
  cell killing EC50, NCI-H292, with 0.5 uM unconjugated mAb 38: > 100 nM
  cell killing EC50, NCI-H1975 (TF++): ~4.4 nM
  cell killing EC50, NCI-H1975, with 0.5 uM unconjugated mAb 38: > 100 nM
  cell killing Span, HCC1954 (TF+++): 91%
  cell killing Span, NCI-H292 (TF++++): 87%
  cell killing Span, NCI-H1975 (TF++): 72%
